Source: patent US20030104422A1
“And” between values parts separate entries of the source, which are not always exact repeats. Equal values may be shown once.

How the values were obtained:
[1] = biological target: human placental alkaline phosphatase (PLAP, Sigma) (human) (UniProt P05187); experiment: ELISA on coated hPLAP; mAb 64 ng/ml in PBS, undiluted
[2] = biological target: human placental alkaline phosphatase (PLAP, Sigma) (human) (UniProt P05187); experiment: ELISA on coated hPLAP; mAb 64 ng/ml in PBS, diluted 1:2
[3] = biological target: human placental alkaline phosphatase (PLAP, Sigma) (human) (UniProt P05187); experiment: ELISA on coated hPLAP; mAb 64 ng/ml in PBS, diluted 1:4
[4] = biological target: human placental alkaline phosphatase (PLAP, Sigma) (human) (UniProt P05187); experiment: ELISA on coated hPLAP; mAb 64 ng/ml in PBS, diluted 1:8
[5] = biological target: human placental alkaline phosphatase (PLAP, Sigma) (human) (UniProt P05187); experiment: ELISA on coated hPLAP; mAb 64 ng/ml in PBS, diluted 1:16
[6] = biological target: human placental alkaline phosphatase (PLAP, Sigma) (human) (UniProt P05187); experiment: ELISA on coated hPLAP; mAb 64 ng/ml in PBS, diluted 1:32
[7] = biological target: human placental alkaline phosphatase (PLAP, Sigma) (human) (UniProt P05187); experiment: ELISA on coated hPLAP; mAb 64 ng/ml in PBS, diluted 1:64
[8] = biological target: human placental alkaline phosphatase (PLAP, Sigma) (human) (UniProt P05187); experiment: ELISA on coated hPLAP; mAb 64 ng/ml spiked in negative serum, undiluted
[9] = biological target: human placental alkaline phosphatase (PLAP, Sigma) (human) (UniProt P05187); experiment: ELISA on coated hPLAP; mAb 64 ng/ml spiked in negative serum, diluted 1:2
[10] = biological target: human placental alkaline phosphatase (PLAP, Sigma) (human) (UniProt P05187); experiment: ELISA on coated hPLAP; mAb 64 ng/ml spiked in negative serum, diluted 1:4
[11] = biological target: human placental alkaline phosphatase (PLAP, Sigma) (human) (UniProt P05187); experiment: ELISA on coated hPLAP; mAb 64 ng/ml spiked in negative serum, diluted 1:8
[12] = biological target: human placental alkaline phosphatase (PLAP, Sigma) (human) (UniProt P05187); experiment: ELISA on coated hPLAP; mAb 64 ng/ml spiked in negative serum, diluted 1:16
[13] = biological target: human placental alkaline phosphatase (PLAP, Sigma) (human) (UniProt P05187); experiment: ELISA on coated hPLAP; mAb 64 ng/ml spiked in negative serum, diluted 1:32
[14] = biological target: human placental alkaline phosphatase (PLAP, Sigma) (human) (UniProt P05187); experiment: ELISA on coated hPLAP; mAb 64 ng/ml spiked in negative serum, diluted 1:64
[15] = biological target: human placental alkaline phosphatase (PLAP, Sigma) (human) (UniProt P05187); experiment: ELISA on coated hPLAP; row labelled '0' (apparently no sample, background)

Chain of UniProt P05187 (P05187 23-506 limits assumed): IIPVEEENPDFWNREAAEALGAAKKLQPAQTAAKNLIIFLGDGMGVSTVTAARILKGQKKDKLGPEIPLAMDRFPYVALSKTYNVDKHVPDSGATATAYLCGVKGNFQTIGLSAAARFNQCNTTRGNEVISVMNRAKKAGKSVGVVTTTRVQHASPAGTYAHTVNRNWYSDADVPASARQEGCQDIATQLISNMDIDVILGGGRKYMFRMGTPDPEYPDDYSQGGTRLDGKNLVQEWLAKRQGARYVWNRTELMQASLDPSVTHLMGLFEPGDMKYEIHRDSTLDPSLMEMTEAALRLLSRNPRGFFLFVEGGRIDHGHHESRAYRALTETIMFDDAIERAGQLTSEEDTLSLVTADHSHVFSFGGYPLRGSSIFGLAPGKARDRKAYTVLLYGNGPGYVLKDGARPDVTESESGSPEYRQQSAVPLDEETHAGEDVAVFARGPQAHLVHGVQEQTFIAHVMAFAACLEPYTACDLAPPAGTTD

| Substance | absorbance at 450 nm (absorbance at 450 nm) [1] | absorbance at 450 nm (absorbance at 450 nm) [2] | absorbance at 450 nm (absorbance at 450 nm) [3] | absorbance at 450 nm (absorbance at 450 nm) [4] | absorbance at 450 nm (absorbance at 450 nm) [5] | absorbance at 450 nm (absorbance at 450 nm) [6] | absorbance at 450 nm (absorbance at 450 nm) [7] | absorbance at 450 nm (absorbance at 450 nm) [8] | absorbance at 450 nm (absorbance at 450 nm) [9] | absorbance at 450 nm (absorbance at 450 nm) [10] | absorbance at 450 nm (absorbance at 450 nm) [11] | absorbance at 450 nm (absorbance at 450 nm) [12] | absorbance at 450 nm (absorbance at 450 nm) [13] | absorbance at 450 nm (absorbance at 450 nm) [14] | absorbance at 450 nm (absorbance at 450 nm) [15] |
| --- | --- | --- | --- | --- | --- | --- | --- | --- | --- | --- | --- | --- | --- | --- | --- |
| mouse monoclonal antibody to PLAP (clone 8B6, Sigma Immunochemicals) | 0.486 | 0.487 | 0.424 | 0.282 | 0.169 | 0.091 | 0.047 | 0.546 | 0.439 | 0.341 | 0.209 | 0.123 | 0.071 | 0.042 | 0.007 and 0.009 |
| negative control serum (serum of mice injected with saline) | – | – | – | – | – | – | – | – | – | – | – | – | – | – | 0.005 |
